Laboratory results: publication PMC4038064
Like-named read-outs stand apart in the source and are kept apart here.

B1: Sema3F C-terminal peptide, wild type (S3F-RR) (peptide)
peptide: WDQKKPRNRR
B2: Sema3F C-terminal peptide, C-1 proline variant (S3F-PR) (peptide)
peptide: WDQKKPRNPR
B3: Sema3F C-terminal peptide, C-1 aspartate variant (S3F-DR) (peptide)
peptide: WDQKKPRNDR

How the values were obtained:
[1] = biological target: Neuropilin-1 domains b1b2 (Nrp1-b1b2); experiment: in vitro plate binding assay
[2] = biological target: Neuropilin-1 domains b1b2 (Nrp1-b1b2); experiment: ITC
[3] = biological target: Neuropilin-1 domains b1b2 (Nrp1-b1b2); experiment: in vitro plate binding assay; remark: listed apart in the source

Molecule | IC50 [1] | Kd [2] | dH [2] | stoichiometry N [2] | IC50 [3] | Ka [2]
Sema3E.3 peptide (Sema3E, furin cleavage site 3) | 0.76 µM |  |  |  |  | 
Sema3A.2 peptide (Sema3A, furin cleavage site 2) | 34 µM |  |  |  |  | 
B1 |  | 33 µM | -18.5 kcal/mol | 1 | 11 µM | 
B2 |  | 10 µM | -17 kcal/mol | 1 | 4.7 µM | 101000 M⁻¹
B3 |  |  |  |  | 28 µM | 
